# Reference: article PMC3143253
# Read-outs that look alike come from different tables or passages of the source.
# Legend:
# [1] = target: IAEDANS-labeled CaM-K75C (UniProt P0DP23); experiment: other fluorescence titration
# [2] = target: calmodulin (UniProt P0DP23); experiment: ITC
# [3] = target: IAEDANS-labeled CaM-K75C (UniProt P0DP23); experiment: other fluorescence titration; remark: listed apart in the source
# [4] = target: TMR-conjugated CLS-S329C, reconstituted in liposomes (human); experiment: other fluorescence titration
Kd [1],Ka [2],Kd [2],dH [2],stoichiometry N [2],Kd [3],Kd [4],Substance
2100 nM,204000 M⁻¹,4900 nM,-0.77 kcal/mol,0.92,2500 nM,,ARR18 peptide (entire cytoplasmic domain of human L-selectin)
,,,,,,1700 nM,calmodulin (from UniProt P0DP23 1-149) (natural protein)
